Measurements: PMC9100969, “Structure-Guided Engineering of a Family IV Cold-Adapted Esterase Expands Its Substrate Range” (International Journal of Molecular Sciences, 2022)

How the values were obtained:
Assay in all cases: purified protein
Assay type in all cases: biochemical, Sutcliffiella cohnii
Settings in all cases: 50 mM Tris-HCl pH 8.0, 20 °C
purified protein [1] = substrate: CC(=O)Oc1ccc([N+](=O)[O-])cc1
purified protein [2] = substrate: CCCC(=O)Oc1ccc([N+](=O)[O-])cc1
purified protein [3] = substrate: CCCCCC(=O)Oc1ccc([N+](=O)[O-])cc1
purified protein [4] = substrate: CCCCCCCC(=O)Oc1ccc([N+](=O)[O-])cc1

Protein | Km (purified protein [1]) [µM] | kcat (purified protein [1]) [s⁻¹] | kcat/Km (purified protein [1]) [M⁻¹ s⁻¹] | Km (purified protein [2]) [µM] | kcat (purified protein [2]) [s⁻¹] | kcat/Km (purified protein [2]) [M⁻¹ s⁻¹] | Km (purified protein [3]) [µM] | kcat (purified protein [3]) [s⁻¹] | kcat/Km (purified protein [3]) [M⁻¹ s⁻¹] | Km (purified protein [4]) [µM] | kcat (purified protein [4]) [s⁻¹] | kcat/Km (purified protein [4]) [M⁻¹ s⁻¹]
EstN7 (Sutcliffiella cohnii; W206A) (protein, recombinant, purified from E. coli BL21(DE3); dimer; catalytic triad S157, D254, H284) MKNRIDPELRAMLDMFPPLNLDDVQATRKAMEEAAQLTELPVDEEVVVSNRMVPGPEDNPYVRVRIYEPKEKIEKLPGLLWIHGGGYVLGAPEGDDLLCQRFVKEANCVVVSVDYRLAPEHPYPAPLEDCYAALQWFAKKVDELGVDASRIGVGGQSAGGGLTAALALLARDRKGPELCFQMPLYPMIDDKNNSPSSLEITGNLIANHDLNEKGWSMYLDGKNGTDDVPVHAAPARATDLTNLPYTYTCVGQLDPFRDETLDYVKRLCQAGVDVEFHLYPGAYHGFETLNPAAAVSQRALAEYVGAVKHVLNREKVVERK | 1300 ± 140 | 1.5 ± 0.07 | 1190 | 1200 ± 550 | 8 ± 1 | 6670 | 1100 ± 70 | 3.8 ± 0.07 | 3350 |  |  | 
EstN7 (Sutcliffiella cohnii; N211A) (protein, recombinant, purified from E. coli BL21(DE3); dimer; catalytic triad S157, D254, H284) MKNRIDPELRAMLDMFPPLNLDDVQATRKAMEEAAQLTELPVDEEVVVSNRMVPGPEDNPYVRVRIYEPKEKIEKLPGLLWIHGGGYVLGAPEGDDLLCQRFVKEANCVVVSVDYRLAPEHPYPAPLEDCYAALQWFAKKVDELGVDASRIGVGGQSAGGGLTAALALLARDRKGPELCFQMPLYPMIDDKNNSPSSLEITGNLIWNHDLAEKGWSMYLDGKNGTDDVPVHAAPARATDLTNLPYTYTCVGQLDPFRDETLDYVKRLCQAGVDVEFHLYPGAYHGFETLNPAAAVSQRALAEYVGAVKHVLNREKVVERK | 750 ± 1 | 280.5 ± 0.07 | 374000 | 2000 ± 200 | 15 ± 0.5 | 7500 | 370 ± 50 | 2.3 ± 0.2 | 6280 |  |  | 
EstN7 (Sutcliffiella cohnii) (protein, recombinant, purified from E. coli BL21(DE3); dimer; catalytic triad S157, D254, H284) MKNRIDPELRAMLDMFPPLNLDDVQATRKAMEEAAQLTELPVDEEVVVSNRMVPGPEDNPYVRVRIYEPKEKIEKLPGLLWIHGGGYVLGAPEGDDLLCQRFVKEANCVVVSVDYRLAPEHPYPAPLEDCYAALQWFAKKVDELGVDASRIGVGGQSAGGGLTAALALLARDRKGPELCFQMPLYPMIDDKNNSPSSLEITGNLIWNHDLNEKGWSMYLDGKNGTDDVPVHAAPARATDLTNLPYTYTCVGQLDPFRDETLDYVKRLCQAGVDVEFHLYPGAYHGFETLNPAAAVSQRALAEYVGAVKHVLNREKVVERK | 50 ± 7 | 760 ± 3.5 | 1.52e+07 | 57 ± 2 | 0.32 ± 0.005 | 5610 |  |  |  |  |  | 
EstN7 (Sutcliffiella cohnii; M187A/N211A) (protein, recombinant, purified from E. coli BL21(DE3); dimer; catalytic triad S157, D254, H284) MKNRIDPELRAMLDMFPPLNLDDVQATRKAMEEAAQLTELPVDEEVVVSNRMVPGPEDNPYVRVRIYEPKEKIEKLPGLLWIHGGGYVLGAPEGDDLLCQRFVKEANCVVVSVDYRLAPEHPYPAPLEDCYAALQWFAKKVDELGVDASRIGVGGQSAGGGLTAALALLARDRKGPELCFQMPLYPAIDDKNNSPSSLEITGNLIWNHDLAEKGWSMYLDGKNGTDDVPVHAAPARATDLTNLPYTYTCVGQLDPFRDETLDYVKRLCQAGVDVEFHLYPGAYHGFETLNPAAAVSQRALAEYVGAVKHVLNREKVVERK | 1100 ± 70 | 361 ± 0.14 | 328000 | 370 ± 80 | 17.6 ± 2.1 | 46800 | 1200 ± 10 | 24.5 ± 0.7 | 20400 | 950 ± 20 | 0.45 ± 0.02 | 473
